# Measured values from the supplement of paper PMC10724198.
# ± gives the standard deviation of the averaged measurements.
# System: Saccharomyces cerevisiae
# Experiment: protein stability index of tFT-peptide fusion (C-terminal peptide) (PSI (0-1 scale)); higher = more stable (slower turnover)
# Details: genetic background: wild type; temperature: 30 C
# Procedure: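 Multiplexed protein stability (MPS) profiling in S. cerevisiae. Random 12-aa peptides (tFT-X12 library) are fused to the C-terminus of a sfGFP-mCherry tandem fluorescent timer, after mCherry and a GGGS linker. Cells are FACS-sorted into 8 mCherry/sfGFP bins and deep-sequenced. The protein stability index (PSI) is the read-weighted bin average, scaled from 0 (unstable) to 1 (stable). Only peptides with >10 reads are reported; cells were grown at 30 °C in SC-His with glucose.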
# 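Also: PSI is a weighted mean of sequencing reads over stability bins, variants kept only with over 10 reads, mCherry proximal and sfGFP distal, peptide attached via GGGS linker.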
row,Sequence,protein stability index
1,ARLHIPSLLPAS,0.6798 ± 0.0057
2,ILSPDRTHANET,0.665 ± 0.083
3,AKKKHHKYRRNG,0.6542 ± 0.0048
4,SSPHRFLCLPPP,0.639 ± 0.061
5,LTPGFSRIDRAP,0.718 ± 0.062
6,DYRTLGPAPDKS,0.74 ± 0.035
7,IRETTYSRPFQL,0.695 ± 0.05
8,GCCWGCRIGEAV,0.6557 ± 0.0052
9,NARGRGAGGAST,0.626 ± 0.048
10,PSPPPPTVPHPP,0.6779 ± 0.00096
11,ETEGSSSLGTRI,0.661 ± 0.021
12,PCGGVGRECVRG,0.762 ± 0.032
13,RTTKRNDYLSHI,0.699 ± 0.08
14,PLPPLPPPFLPP,0.641 ± 0.1
15,GRLSQWVPNGRA,0.681 ± 0.076
16,AIRPPLPPPTPL,0.674 ± 0.046
17,VVFGLESCDWRG,0.669 ± 0.0093
18,AFNPLPPFPLGF,0.706 ± 0.034
19,GLCSMRLYKPRI,0.634 ± 0.014
20,FLSRLGLVGWWG,0.643 ± 0.036
21,SPALSPDPSPSP,0.704 ± 0.037
22,NMLWSLGRGGSC,0.6648 ± 0.0029
23,FSFCQLSLASFP,0.571 ± 0.01
24,RDGRNSKPTYQP,0.667 ± 0.025
25,LFDRFVAGVRYG,0.656 ± 0.021

row,Sequence,protein stability index
1,SDVLSFYGGVEC,0.742 ± 0.026
2,VGVSGEGFSWGG,0.674 ± 0.019
3,VECLDTKTTCNI,0.73 ± 0.035
4,WVGVGMRTNGLG,0.679 ± 0.072
5,VTCRALTFSLLG,0.635 ± 0.12
6,SLAPLPLIVLFL,0.487 ± 0.023
7,DVAEAGPRPPPT,0.755 ± 0.091
8,GGEYVGGRGCGL,0.682 ± 0.1
9,PARPNMHTTPAD,0.646 ± 0.02
10,DGGSGQGMFGGS,0.611 ± 0.039
11,VASVWGVGFVAS,0.694 ± 0.058
12,GIRGECEFHSCD,0.685 ± 0.015
13,RVSLELEIIPPS,0.706 ± 0.05
14,PPCPGPLPPPPP,0.6663 ± 0.0025
15,ARTRRPTPGRPI,0.719 ± 0.066
16,CGGCPGCDIHMG,0.655 ± 0.082
17,IRGGSRLPFYSS,0.731 ± 0.013
18,ELSARVCLGSLF,0.676 ± 0.015
19,GGRFGLGGRLVG,0.658 ± 0.05
20,APSPSPPPPLPN,0.685 ± 0.058
21,VWGVFGGCWCGV,0.693 ± 0.021
22,RGWLSAWDENGK,0.704 ± 0.019
23,SPLPPPSLPRPP,0.641 ± 0.017
24,GSRPPPRPLFPS,0.697 ± 0.048
25,LTFSVQCVYFDS,0.571

row,Sequence,protein stability index
1,NASASTLPFPLD,0.71 ± 0.054
2,FGVGGRWVVPGA,0.733 ± 0.016
3,PPPPYPPHPPSA,0.712 ± 0.027
4,PTRFLPVPSLFS,0.679 ± 0.048
5,HAPALSSTPRLL,0.6836 ± 0.0064
6,GSLWGAFFRGLL,0.688 ± 0.04
7,PPRSRPLPALPS,0.647 ± 0.044
8,AGVRFLVIPRPP,0.7182 ± 0.004
9,LSGPPVSVQRSF,0.594 ± 0.03
10,TNGHIVRLGRRV,0.63 ± 0.011
11,VLGWCLCGRTCG,0.6579 ± 0.0013
12,WWEFSCGFVVGG,0.671 ± 0.098
13,VVKKDTHVKRKT,0.636 ± 0.027
14,GCWGAGESTLGG,0.724 ± 0.0084
15,APVGTPARPSLS,0.725 ± 0.016
16,GTVEDVLIFYEP,0.691 ± 0.1
17,CFPPSLVPRPTY,0.673 ± 0.054
18,PTLSPRSPRFAS,0.755 ± 0.035
19,FRISWLRVKGRG,0.676 ± 0.035
20,AWRGGSRKDVEG,0.7129 ± 0.001
21,PVCIRSLGTALF,0.675 ± 0.0086
22,SVRDRCKENERF,0.658 ± 0.043
23,VGGVGGGRAWWR,0.685 ± 0.055
24,VGAAGGVGGSGG,0.629 ± 0.048
25,SGLSFPPLYSLL,0.715 ± 0.092

row,Sequence,protein stability index
1,WPKNSTNHSWKW,0.744 ± 0.035
2,WGGYLISLNLYN,0.561 ± 0.025
3,LRISIEVTNYGP,0.517 ± 0.021
4,LRKDVRTRSNTK,0.806 ± 0.051
5,PPSPPPPLSLSP,0.6853 ± 0.0033
6,VSTRVAVESPLG,0.656 ± 0.03
7,SSFFTTGAPRPP,0.674 ± 0.061
8,DRTNIIGVIDDL,0.753 ± 0.05
9,PPRSPPPPRLLL,0.724 ± 0.048
10,LYLRNFGSPFLV,0.65 ± 0.024
11,GMGRGRGNANEG,0.622 ± 0.045
12,KRRNKTNREDTM,0.68 ± 0.052
13,RSTRLPGFNRRE,0.662 ± 0.0062
14,PLPLPPPPPLPL,0.657 ± 0.041
15,DDWCLVGGLCDC,0.684 ± 0.033
16,SPVRRGRCRLSG,0.728 ± 0.1
17,PHPHLPPARSPP,0.675 ± 0.019
18,VSSWNALCVEGM,0.649 ± 0.0073
19,PFPPPPTPTLSP,0.755 ± 0.027
20,RLIHRLLGLFPS,0.69 ± 0.06
21,PLPTSMNTHALV,0.683 ± 0.079
22,LFSARRKSPTSL,0.708 ± 0.058
23,FLFCSYHSPLSF,0.7 ± 0.036
